Measured values: patent US20100104550A1 (priority 2006, published 2010)
Entries after “also recorded” stand apart in the source; their conditions may differ.

What was measured:
MDA231luc cells [1] = assay type: cell-based, human
EGFR = EGFR (Homo sapiens, UniProt P00533); assay type: cell-based, rat
GRP78/BiP = GRP78/BiP (Homo sapiens, UniProt P11021); assay type: cell-based
MDA231luc cells [2] = assay type: cell-based, human; remark: listed apart in the source
caspase-3/7 = assay type: cell-based, human
α-fodrin = assay type: cell-based, human
MDA231luc-Dox cells = assay type: cell-based, human
F98/EGFR-Dox cells = assay type: cell-based, rat

GRP78/BiP, sequence (P11021 19-654): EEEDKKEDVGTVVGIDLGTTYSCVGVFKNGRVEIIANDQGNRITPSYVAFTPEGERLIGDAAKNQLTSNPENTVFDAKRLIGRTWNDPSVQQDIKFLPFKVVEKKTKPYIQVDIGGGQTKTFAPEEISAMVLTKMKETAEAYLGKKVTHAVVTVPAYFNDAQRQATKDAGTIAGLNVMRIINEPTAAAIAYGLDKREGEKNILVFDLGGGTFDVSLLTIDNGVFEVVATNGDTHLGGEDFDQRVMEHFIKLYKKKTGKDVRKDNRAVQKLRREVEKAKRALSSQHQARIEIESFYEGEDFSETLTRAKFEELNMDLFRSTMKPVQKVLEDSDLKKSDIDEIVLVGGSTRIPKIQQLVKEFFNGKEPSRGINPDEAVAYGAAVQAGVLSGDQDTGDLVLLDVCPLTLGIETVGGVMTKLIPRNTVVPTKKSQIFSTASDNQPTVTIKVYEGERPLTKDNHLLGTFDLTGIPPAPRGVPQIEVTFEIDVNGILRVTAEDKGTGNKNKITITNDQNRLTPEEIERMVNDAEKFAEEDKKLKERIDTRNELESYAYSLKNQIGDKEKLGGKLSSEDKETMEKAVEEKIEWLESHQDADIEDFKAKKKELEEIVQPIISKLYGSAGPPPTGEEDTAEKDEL

B1: EGF-SubA: fusion protein (SEQ ID NO:13): Cys-tag, linker, human EGF, linker, 326 amino acid SubA fragment (protein)
chain: MKESCAKKFQRQHMDSGGGGSGGGGSGGGGSMGNSDSECPLSHDGYCLHDGVCMYIEALDKYACNCVVGYIGERCQYRDLKWWELRSMADIGSEKPWYFDAIGLTETTMSLTDKNTPVVVSVVDSGVAFIGGLSDSEFAKFSFTQDGSPFPVKKSEALYIHGTAMASLIASRYGIYGVYPHALISSRRVIPDGVQDSWIRAIESIMSNVFLAPGEEKIINISGGQKGVASASVWTELLSRMGRNNDRLIVAAVGNDGADIRKLSAQQRIWPAAYHPVSSVNKKQDPVIRVAALAQYRKGETPVLHGGGITGSRFGNNWVDIAAPGQNITFLRPDAKTGTGSGTSEATAIVSGVLAAMTSCNPRATATELKRTLLESADKYPSLVDKVTEGRVLNAEKAISMFCKKNYIPVRQGRMSEEL
modifications: fusion protein of subA and human EGF with cys tag consisting of SEQ ID NOS 7 to 12
effect of excess EGF on EGF-SubA toxicity (MDA231luc cells [1]): inhibited by excess of EGF; also recorded: excess of free EGF rescue cells | fold lower sensitivity of MDA-231luc cells vs F98/EGFR cells (MDA231luc cells [1]): 10 fold | EGFR tyrosine autophosphorylation (EGFR): induced EGFR tyrosine autophosphorylation in the same concentration range | cleavage of BiP in combination treatment (GRP78/BiP): effective cleavage of BiP | cleavage of intracellular GRP78/BiP (GRP78/BiP): appearance of a 28-kDa fragment; also recorded: selectively cleaves intracellular BiP | effect on bortezomib-induced cell growth inhibition (MDA231luc cells [2]): enhances cell growth inhibition | effect on thapsigargin-induced cell growth inhibition (MDA231luc cells [2]): enhances cell growth inhibition | total DEVD- and specific caspase-3/7 activity (caspase-3/7): significant increase | accumulation of 150-kDa and 120-kDa fragments of α-fodrin (α-fodrin): Greater accumulation | sensitivity of MDA231luc-Dox cells relative to parental MDA231luc (MDA231luc-Dox cells): Enhanced sensitivity; also recorded: significantly more sensitive | sensitivity of F98/EGFR-Dox cells relative to parental F98/EGFR (F98/EGFR-Dox cells): Enhanced sensitivity; also recorded: significantly more sensitive | IC50 (parental F98 cells): ~2.5 nM
